Assay: soluble on expression in E. coli; label from the status in PepcDB or PDB records
In the case of “MGSSHHHHHHSSGLVPRGSHMVESKNTELSQGTWLNKPKSVFQEAGKVTLETDEKTDFWRETFYGFTRDSGHFLGVETGSAFTAQVRVQGSYESLYDQAGIMVRIDDGHWLKAGIEISDGHAMLSSVLTNGKSDWSTAVYGGNARDFWLRVTVEKGVLRIQVSSDKKTWPLVRLAPFPTSDHYLVGPMACTPERGGLKVTFSEWSLTAPLGKALHDLS”, the “soluble on expression in E. coli” value is reported as “soluble”.
With “MGSSHHHHHHSSGLVPRGSRHSTLDFMLGAKADGETILKGLQSIFQEQGMAESVHTWQDHGYLATYTNKNGSFANLRIYPHGLVLLDLQSYDGDAQGKEEIDSILNKVEERMKELSQDSTGRVKRLPPIVRGGAIDRYWPTADGRLVEYDIDEVVYDEDSPYQNIKILHSKQFGNILILSGDVNLAESDLAYTRAIMGSGKEDYTGKDVLILGGGDGGILCEIVKLKPKMVTMVEIDQMVIDGCKKYMRKTCGDVLDNLKGDCYQVLIEDCIPVLKRYAKEGREFDYVINDLTAVPISTSPEEDSTWEFLRLILDLSMKVLKQDGKYFTQGNCVNLTEALSLYEEQLGRLYCPVEFSKEIVCVPSYLELWVFYTVWKKAKP” the “soluble on expression in E. coli” value was “soluble”.
In the case of “MGSSHHHHHHSSGLVPRGSTSEVIEDEKQFYSKAKTYWKQIPPTVDGMLGGYGHISSIDINSSRKFLQRFLREGPNKTGTSCALDCGAGIGRITKRLLLPLFREVDMVDITEDFLVQAKTYLGEEGKRVRNYFCCGLQDFTPEPDSYDVIWIQWVIGHLTDQHLAEFLRRCKGSLRPNGIIVIKDNMAQEGVILDDVDSSVCRDLDVVRRIICSAGLSLLAEERQENLPDEIYHVYSFALR”, the “soluble on expression in E. coli” value is reported as “soluble”.
For “MGSSHHHHHHSSGRENLYFQGHMIPEHLSIYTAYNANIAAIVKLNQETIQNLINAFDPDEVKRRIEEYPREINEPIDFVARLVHTLKLGKPAAVPLVNEKMNEWFDKTFRYEEERLGGQAGIIANTLAGLKIRKVIAYTPFLPKRLAELFKKGVLYPVVENGELQFKPIQEAYREGDPLKINRIFEFRKGLKFKLGDETIEIPNSGRFIVSARFESISRIETREDIKPFLGEIGKEVDGAIFSGYQGLRTKYSDGKDANYYLRRAKEDIIEFKEKDVKIHVEFASVQDRKLRKKIITNILPFVDSVGIDEAEIAQILSVLGYRELADRIFTYNRLEDSILGGMIILDELNFEILQVHTTYYLMYITHRDNPLSEEELAKSLEFGTTLAAARASLGDIRGPDDYKVGLKVPFNERSEYVKLRFEEAKSRLRMREYKVVVIPTRLVQNPVLTVGLGDTISAGAFLTYLEFLKRHGS”, the “soluble on expression in E. coli” value was “soluble”.
With “MGSSHHHHHHSSGRENLYFQGHMSCTTDKLIQKYDALVRKTTEHKFAKELCAGTLKDRSLYIYLSQDLQFFETSLRLICKTTSLAPTTHALITLAKKIGFFSNDENSYFHDCLELLAPSLTKEERDNFDNKAIPGVDAYINFLDELRKDASITWPSLVTSLWVAEELYWRWARDTPRAPGLHWKYQKWIDLHDGEHFQTWCEFLKAEVDKFPVEEVESIFVKVSQFEFEFFESCYNA” the “soluble on expression in E. coli” value was “soluble”.
With “MGTPQGKLKTINGVGKIEDFASTKAKMRVRYPLLITFNYWVLYKSPDKSWFISANPSTEDVWVYARSVPSKAKLNRMMMKVRELGYDVKKLEFPLEHHHHHH” the “soluble on expression in E. coli” value was “not soluble”.
In the case of “MGTSSFTFPGFYRAKNMRSPECLDLLDSMNHFILHCHWEHADLNRTSLTERKRLGSKYEYENWFEEKRENSGTKFIKRSSSSKEIHYNCALVTNGDNRQFKKSKKLDQYCASGKVQFHDSGSVDVLGCCSHAGHDT”, the “soluble on expression in E. coli” value is reported as “not soluble”.
With “MGVMESGRPPAKPRERVFVGGCLHAGMDHDTAGRTSRQILDAVGSAVIADDHFLETVMTGILARGHVLLEDVPGTGKTLTAQSFATALDLSFKRVQFTPDLLPSDITGSNVFNEATGEFDFQPGPVFANVVLADEINRAPPKTQAALLEAMGEKQVTVDGVTHDLPEPFFVIATQNPVEQEGTFGLPEAQRDRFIVKTSMGYPDFGGERELIDRRADRTAQAPSVTSVIDGERLPALQRTVESVTVDGTLRDYVVELGRATREDDRVDVGVSPRGIQRLFEATRAAAVLDGRDYAVPDDVKTVVEEAFAHRLVLTADAGVRGVDPATVVDDVLDRVEVPAVSPLEHHHHHH” the “soluble on expression in E. coli” value was “not soluble”.
With “MGYLKNHWWKRWIRRRGCKLAGGPASVGKRTTLVLEERVELGHLRIVPPRLEIGAYSYVRSGTDLSLVASIGRFCSIGSDCFIGQEKHTHPSDWVSSHPFQHTGTALRYEPALSYAEIGHDVWIGHSAMVMEGVKVGTGAIIATRAVVTRDVPPYAIVAGTPAQVIRYRHPPEIIEGLLASRWWELDSAFLTGLPLDRPREFLAALEAREAPRAAYRRMTITRQGCRLD” the “soluble on expression in E. coli” value was “not soluble”.
For “MGYNKPAAWKPLDRTDWDVSFSYAYGYDEAQFGGRLAVDGDVSTTWFTWGVVSAGECWWATTLPAPTHLTGFSLTRQTTFGSSYNVREAKVKVKKEGDTEWTEAGLFRFGSFKGNDPQYAVFIPAVENVKEFRIDIVSPADFTGFAELDLYQLEHHHHHH”, the “soluble on expression in E. coli” value was “soluble”.
For “MGYTVAVVGATGAVGAQMIKMLEESTLPIDKIRYLASARSAGKSLKFKDQDITIEETTETAFEGVDIALFSAGSSTSAKYAPYAVKAGVVVVDNTSYFRQNPDVPLVVPEVNAHALDAHNGIIACPNCSTIQMMVALEPVRQKWGLDRIIVSTYQAVSGAGMGAILETQRELREVLNDGVKPRDLHAEILPSGGDKKHYPIAFNALPQIDVFTDNDYTYEEMKMTKETKKIMEDDSIAVSATCVRIPVLSAHSESVYIETKEVAPIEEVKAAIAAFPGAVLEDDVAHQIYPQAINAVGSRDTFVGRIRKDLDAEKGIHMWVVSDNLLKGAAWNSVQIAETLHERGLVRPTAELKFELK”, the “soluble on expression in E. coli” value was “soluble”.
In the case of “MHEYSIVSALIEQCEQYAKANQATKVTRVEIKLGVMSGVEPALLQTAFETFKLDGICREAKLCMTLQPLVIKCADCQQESVLDERSIVCPACNSYHTRVLDGEEMLLMQLEMEQAEDA”, the “soluble on expression in E. coli” value is reported as “soluble”.
In the case of “MHGRLKVKTSEEQAEAKRLEREQKLKLYQSATQAVFQKRQAGELDESVLELTSQILGANPDFATLWNCRREVLQHLETEKSPEESAALVKAELGFLESCLRVNPKSYGTWHHRCWLLSRLPEPNWARELELCARFLEADERNFHCWDYRRFVAAQAAVAPAEELAFTDSLITRNFSNYSSWHYRSCLLPQLHPQPDSGPQGRLPENVLLKELELVQNAFFTDPNDQSAWFYHRWLLGRAEPHDVLCCVHVSREEACLSVCFSRPLTVGSRMGTLLLMVDEAPLSVEWRTPDGRNRPSHVWLCDLPAASLNDQLPQHTFRVIWTGSDSQKECVLLKDRPECWCRDSATDEQLFRCELSVEKSTVLQSELESCKELQELEPENKWCLLTIILLMRALDPLLYEKETLQYFSTLKAVDPMRAAYLDDLRSKFLLENSVLKMEYADVRVLHLAHKDLTVLCHLEQLLLVTHLDLSHNRLRALPPALAALRCLEVLQASDNALENVDGVANLPRLQELLLCNNRLQQSAAIQPLVSCPRLVLLNLQGNSLCQEEGIQERLAEMLPSVSSILT”, the “soluble on expression in E. coli” value is reported as “soluble”.
In the case of “MHHHHHHAIGYVWNTLYGWVDTGTGSLAAANLTARMQPISHHLAHPDTKRRFHELVCASGQIEHLTPIAAVAATDADILRAHSAAHLENMKRVSNLPTGGDTGDGITMMGNGGLEIARLSAGGAVELTRRVATGELSAGYALVNPPGHHAPHNAAMGFCIFNNTSVAAGYARAVLGMERVAILDWDVHHGNGTQDIWWNDPSVLTISLHQHLCFPPDSGYSTERGAGNGHGYNINVPLPPGSGNAAYLHAMDQVVLPALRAYRPQLIIVGSGFDASMLDPLARMMVTADGFRQMARRTIDCAADICDGRIVFVQEGGYSPHYLPFCGLAVIEELTGVRSLPDPYHEFLAGMGGNTLLDAERAAIEEIVPLLADIR”, the “soluble on expression in E. coli” value is reported as “soluble”.
For “MHHHHHHAMGTKKSAAEASKKPRQKRTATKQYNVTQAFGRRGPEQTQGNFGDQDLIRQGTDYKHWPQIAQFAPSASAFFGMSRIGMEVTPSGTWLTYHGAIKLDDKDPQFKDNVILLNKHIDAYKTFP”, the “soluble on expression in E. coli” value was “soluble”.
For “MHHHHHHENLYFQGSTSENITQKVVWVEESDKRSFLLDLLNATGKDSLTLVFVETKKGADSLEDFLYHEGYACTSIHGDRSQRDREEALHQFRSGKSPILVATAVAARGLDISNVKHVINFDLPSDIEEYVHRIGRTGRVGNLGLATSFFNERNINITKDLLDLLVEAKQEVPSWLENMAYEHHY”, the “soluble on expression in E. coli” value was “soluble”.
For “MHHHHHHMMSETAEKAIEIWKIRRLVKQLINCHGNGTSMITLIIPPGEQISRYSNMLAEEYGTASNIKSRVNRLSVLSAITSTRERLKLYNKVPDNGLVIYCGEVIMEGNKTRKLNIDFEPFKPINTSQYLCDNKFHTEALAELLESDQRFGFIVMDGHQTLYGVVSGSAREVLQRFTVDLPKKHGRGGQSALRFARLRDEKRHNYVRKVAEGAVQHFITDDKPNVAGIVLAGSADFKTELGQSDLFDQRLQSRIIKTVDVSYGGDAGFNQAIELAADTLSNVKYVQEKKLIQRFFDEISLDSGKYCFGVVDTMNALQEGAVETLLCFADLDMIRYEFKNSEGNPVITYMTKEQEEKDSTNSFLLDKDTGAEMELVSSMLLSEWLAEHYKDYGANLEFVSDRSQEGMQFVKGFGGIGAVMRYQLDLSMLDPESDEFYSDSD”, the “soluble on expression in E. coli” value was “soluble”.
For “MHHHHHHSSGRENLYFQGTIDDLFIFKRKLGSGAFGDVHLVEERSSGLERVIKTINKDRSQVPMEQIEAEIEVLKSLDHPNIIKIFEVFEDYHNMYIVMETCEGGELLERIVSAQARGKALSEGYVAELMKQMMNALAYFHSQHVVHKDLKPENILFQDTSPHSPIKIIDFGLAELFKSDEHSTNAAGTALYMAPEVFKRDVTFKCDIWSAGVVMYFLLTGCLPFTGTSLEEVQQKATYKEPNYAVECRPLTPQAVDLLKQMLTKDPERRPSAAQVLHHEWFKQA”, the “soluble on expression in E. coli” value was “soluble”.
In the case of “MHHHHHHSSGVDLGTENLYFQSMKIAVIGQSLFGQEVYCHLRKEGHEVVGVFTVPDKDGKADPLGLEAEKDGVPVFKYSRWRAKGQALPDVVAKYQALGAELNVLPFCSQFIPMEIISAPRHGSIIYHPSLLPRHRGASAINWTLIHGDKKGGFSIFWADDGLDTGDLLLQKECEVLPDDTVSTLYNRFLFPEGIKGMVQAVRLIAEGKAPRLPQPEEGATYEGIQKKETAKINWDQPAEAIHNWIRGNDKVPGAWTEACEQKLTFFNSTLNTSGLVPEGDALPIPGAHRPGVVTKAGLILFGNDDKMLLVKNIQLEDGKMILASNFFK”, the “soluble on expression in E. coli” value is reported as “soluble”.
With “MHHHHHHSSGVDLGTENLYFQSMMQKLVVTRLSPNFREAVTLSRDCPVPLPGDGDLLVRNRFVGVNASDINYSAGRYDPSVKPPFDIGFEGIGEVVALGLSASARYTVGQAVAYMAPGSFAEYTVVPASIATPVPSVKPEYLTLLVSGTTAYISLKELGGLSEGKKVLVTAAAGGTGQFAMQLSKKAKCHVIGTCSSDEKSAFLKSLGCDRPINYKTEPVGTVLKQEYPEGVDVVYESVGGAMFDLAVDALATKGRLIVIGFISGYQTPTGLSPVKAGTLPAKLLKKSASVQGFFLNHYLSKYQAAMSHLLEMCVSGDLVCEVDLGDLSPEGRFTGLESIFRAVNYMYMGKNTGKIVVELPH” the “soluble on expression in E. coli” value was “soluble”.
In the case of “MHHHHHHSSGVDLGTENLYFQSNAMKEELIERFTRYVKIDTQSNEDSHTVPTTPGQIEFGKLLVEELKEVGLTEVTMDDNGYVMATLPANTDKDVPVIGFLAHLDTATDFTGKNVKPQIHENFDGNAITLNEELNIVLTPEQFPELPSYKGHTIITTDGTTLLGADDKAGLTEIMVAMNYLIHNPQIKHGKIRVAFTPDEEIGRGPAHFDVEAFGASFAYMMDGGPLGGLEYESFNAAGAKLTFNGTNTHPGTAKNKMRNATKLAMEFNGHLPVEEAPEYTEGYEGFYHLLSLNGDVEQSKAYYIIRDFDRKNFEARKNTIENIVKQMQEKYGQDAVVLEMNDQYYNMLEKIEPVREIVDIAYEAMKSLNIEPNIHPIRGGTDGSQLSYMGLPTPNIFTGGENYHGKFEYVSVDVMEKAVQVIIEIARRFEEQA”, the “soluble on expression in E. coli” value is reported as “soluble”.

Source: the DeepSol protein solubility set
